Columns and labels:
[1] = molecular target: T1, ICP4N (ICP4 DNA binding domain) (Herpes simplex virus 1, UniProt P08392 258-487); assay: X-ray crystallography; 2.28 A; SPR: 20 mM HEPES, 200 mM NaCl, 2 mM MgCl2, 0.05% Tween-20, pH 7.4, 25 C; NMR: 20 mM MES, 50 mM NaCl, 50 mM L-Arg, 50 mM L-Glu, 1 mM TCEP, 2 mM MgCl2, pH 6.6, 25 C; conditions: protein: recombinant; tags: N-terminal Strep-tag, HRV3C-cleaved (removed); chain copies: 2; blunt
T1 sequence: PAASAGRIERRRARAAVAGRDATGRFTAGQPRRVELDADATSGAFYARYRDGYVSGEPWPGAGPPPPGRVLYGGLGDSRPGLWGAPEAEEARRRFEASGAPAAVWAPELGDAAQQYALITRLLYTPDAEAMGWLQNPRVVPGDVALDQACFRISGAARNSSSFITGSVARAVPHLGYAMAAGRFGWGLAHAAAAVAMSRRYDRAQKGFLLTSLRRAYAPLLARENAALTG

[2] = molecular target: T1, ICP4N (ICP4 DNA binding domain); assay: SPR; 2 mM Mg2+; nanomolar Kd, value only in Fig 5C; SPR: 20 mM HEPES, 200 mM NaCl, 2 mM MgCl2, 0.05% Tween-20, pH 7.4, 25 C; NMR: 20 mM MES, 50 mM NaCl, 50 mM L-Arg, 50 mM L-Glu, 1 mM TCEP, 2 mM MgCl2, pH 6.6, 25 C; conditions: protein: recombinant; tags: N-terminal Strep-tag, HRV3C-cleaved (removed); chain copies: 2; label: 5' biotin on forward strand; blunt
[3] = molecular target: the molecule itself; assay: SEC-MALS; 0.5 ml at 1 mg/ml on Superdex 75 or Superdex 200 10/300GL in 20 mM HEPES, 150 mM NaCl, 50 mM L-Arg, 50 mM L-Glu, 0.5 mM TCEP, pH 7.9; free protein and (ICP4N) with IE3_19mer DNA
[4] = molecular target: T2, ICP4NdeltaIDR (ICP4deltaIDR) (Herpes simplex virus 1, UniProt P08392 288-487); assay: X-ray crystallography; 2.12 A; SPR: 20 mM HEPES, 200 mM NaCl, 2 mM MgCl2, 0.05% Tween-20, pH 7.4, 25 C; NMR: 20 mM MES, 50 mM NaCl, 50 mM L-Arg, 50 mM L-Glu, 1 mM TCEP, 2 mM MgCl2, pH 6.6, 25 C; conditions: protein: recombinant; tags: N-terminal Strep-tag, HRV3C-cleaved (removed); chain copies: 2; blunt
T2 sequence: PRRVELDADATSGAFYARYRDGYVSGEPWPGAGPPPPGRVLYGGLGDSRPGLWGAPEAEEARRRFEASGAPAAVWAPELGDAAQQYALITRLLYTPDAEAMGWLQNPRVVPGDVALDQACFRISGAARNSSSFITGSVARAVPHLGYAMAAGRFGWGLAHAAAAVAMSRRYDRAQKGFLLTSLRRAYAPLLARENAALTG

B1: IE3_19mer (dsDNA)
DNA 1: CCGATCGTCCACACGGAGC
DNA 2: GCTCCGTGTGGACGATCGG
- binding result [1]: binds

B2: IE3_19mer, biotinylated (dsDNA)
DNA 1: CCGATCGTCCACACGGAGC
DNA 2: GCTCCGTGTGGACGATCGG
- binding result [2]: binds

B3: truncated ICP4 DNA binding domain, residues 288–487 (ICP4NΔIDR) (domain or fragment)
chain: T2 sequence
notes: Strep-tag removed with HRV3C protease; also called ICP4ΔIDR; ICP4NdIDR; source: E. coli T7 Express LysY, purified (Strep-Tactin, Superdex 75); not shown: Strep-tag, N-terminal, cleaved
- stoichiometry N [3]: 2

B4: ICP4 DNA binding domain, residues 258–487 (ICP4N) (domain or fragment)
chain: T1 sequence
notes: gene synthesised, codon optimised for E. coli; Strep-tag removed with HRV3C protease; Homodimer by SEC-MALS, AUC and crystal structure; also called ICP4 DBD; source: E. coli T7 Express LysY, purified (Strep-Tactin, Superdex 75); not shown: Strep-tag, N-terminal, cleaved
- stoichiometry N [3]: 2

B5: IE3_12mer (dsDNA)
DNA 1: CCGATCGTCCAC
DNA 2: GTGGACGATCGG
- binding result [4]: binds
